Experiments:
fbw1b_human FBXW11 = fbw1b_human FBXW11 (UniProt Q9UKB1)
fbw1a_human BTRC = fbw1a_human BTRC (UniProt Q9Y297)
Sequence of fbw1a_human BTRC (Q9Y297 whole entry): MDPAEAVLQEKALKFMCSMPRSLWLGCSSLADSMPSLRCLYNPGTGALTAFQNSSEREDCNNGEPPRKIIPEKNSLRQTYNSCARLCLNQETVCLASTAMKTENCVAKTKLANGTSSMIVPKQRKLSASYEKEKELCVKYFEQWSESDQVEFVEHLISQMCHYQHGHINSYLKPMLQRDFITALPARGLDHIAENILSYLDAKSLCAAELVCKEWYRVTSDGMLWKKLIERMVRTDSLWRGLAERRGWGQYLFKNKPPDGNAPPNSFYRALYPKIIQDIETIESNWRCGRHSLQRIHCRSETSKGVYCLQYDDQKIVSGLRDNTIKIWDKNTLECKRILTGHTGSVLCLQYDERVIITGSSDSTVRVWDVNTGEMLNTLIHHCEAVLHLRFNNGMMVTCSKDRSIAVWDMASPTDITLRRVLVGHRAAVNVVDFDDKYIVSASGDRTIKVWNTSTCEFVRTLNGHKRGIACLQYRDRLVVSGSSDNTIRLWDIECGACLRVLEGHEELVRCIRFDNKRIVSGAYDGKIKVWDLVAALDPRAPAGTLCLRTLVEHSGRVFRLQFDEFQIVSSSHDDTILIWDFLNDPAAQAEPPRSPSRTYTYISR

Sequence of fbw1b_human FBXW11 (Q9UKB1 whole entry): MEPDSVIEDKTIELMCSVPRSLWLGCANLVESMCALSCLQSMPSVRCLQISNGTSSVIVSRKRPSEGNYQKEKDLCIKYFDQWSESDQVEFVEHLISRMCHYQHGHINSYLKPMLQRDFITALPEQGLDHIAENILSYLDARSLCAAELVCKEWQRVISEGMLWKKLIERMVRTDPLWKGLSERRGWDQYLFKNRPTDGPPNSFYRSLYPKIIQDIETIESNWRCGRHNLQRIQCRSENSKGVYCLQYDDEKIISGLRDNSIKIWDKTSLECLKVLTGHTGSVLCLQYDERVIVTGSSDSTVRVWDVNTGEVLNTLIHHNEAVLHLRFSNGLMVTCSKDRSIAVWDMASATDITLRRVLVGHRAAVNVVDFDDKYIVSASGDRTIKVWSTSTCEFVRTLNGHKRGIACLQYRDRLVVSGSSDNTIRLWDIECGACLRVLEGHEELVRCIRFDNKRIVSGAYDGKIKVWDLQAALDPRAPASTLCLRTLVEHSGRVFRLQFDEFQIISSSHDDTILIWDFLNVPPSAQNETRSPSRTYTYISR

| effect of a mutation on the interaction (fbw1b_human FBXW11) | effect of a mutation on the interaction (fbw1a_human BTRC) | Substance |
| --- | --- | --- |
| decreasing interaction |  | Wee1-like protein kinase (Homo sapiens), P30291 D52A;S123A |
|  | decreasing interaction | Wee1-like protein kinase (Homo sapiens), P30291 E116A;E117A |

More lines, now with the values behind:

| Substance | effect of a mutation on the interaction (fbw1b_human FBXW11) | effect of a mutation on the interaction (fbw1a_human BTRC) |
| --- | --- | --- |
| Wee1-like protein kinase (Homo sapiens), P30291 S53A;S123A | decreasing interaction |  |
| Wee1-like protein kinase (Homo sapiens), P30291 S121A |  | decreasing interaction |
| Wee1-like protein kinase (Homo sapiens), P30291 S123A |  | decreasing interaction |

— IntAct's records for PubMed 15070733
